Source: patent US20070249813A1
pKd: −log10 of the molar value.

Tests used:
[1] = biological target: biotinylated recombinant human TNFα (human) (UniProt P01375); experiment: SPR (BIAcore), [Ab] 50 nM over immobilized biotinylated rhTNFα
[2] = biological target: biotinylated recombinant human TNFα (human) (UniProt P01375); experiment: summary table of binding properties for hTNFα (assay not named there)
[3] = biological target: recombinant human TNFα (human) (UniProt P01375); experiment: cell-based or functional assay
recombinant human TNFα (human), sequence (P01375 77-233 limits assumed): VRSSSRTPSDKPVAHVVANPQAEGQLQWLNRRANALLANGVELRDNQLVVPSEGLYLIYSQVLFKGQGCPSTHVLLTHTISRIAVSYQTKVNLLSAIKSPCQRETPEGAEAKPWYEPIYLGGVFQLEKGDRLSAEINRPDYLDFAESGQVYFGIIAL

[4] = biological target: biotinylated recombinant human TNFα (human) (UniProt P01375); experiment: SPR (BIAcore), [Ab] 3 nM over immobilized biotinylated rhTNFα
[5] = biological target: biotinylated recombinant human TNFα (human) (UniProt P01375); experiment: SPR (BIAcore), [Ab] 6 nM over immobilized biotinylated rhTNFα
[6] = biological target: biotinylated recombinant human TNFα (human) (UniProt P01375); experiment: SPR (BIAcore), [Ab] 200 nM over immobilized biotinylated rhTNFα
[7] = biological target: biotinylated recombinant human TNFα (human) (UniProt P01375); experiment: SPR (BIAcore), [Ab] 400 nM over immobilized biotinylated rhTNFα
[8] = biological target: biotinylated recombinant human TNFα (human) (UniProt P01375); experiment: SPR (BIAcore), [Ab] 100 nM over immobilized biotinylated rhTNFα
[9] = biological target: biotinylated recombinant human TNFα (human) (UniProt P01375); experiment: SPR (BIAcore), [Ab] 13 nM over immobilized biotinylated rhTNFα
[10] = biological target: biotinylated recombinant human TNFα (human) (UniProt P01375); experiment: SPR (BIAcore), [Ab] 25 nM over immobilized biotinylated rhTNFα

biotinylated recombinant human TNFα (human), sequence (P01375 77-233 limits assumed): as above

## MAK 195 F(ab′)2 fragment (antibody)
[1]
  Ab, bound, RUs: 1110 RU
[2]
  pKd: 9.34
  Stoichiometry: 1.4
[3]
  IC50, neutralization of TNFα-induced L929 cytotoxicity: 0.062 nM
[4]
  Ab, bound, RUs: 231 RU
[5]
  Ab, bound, RUs: 433 RU
[6]
  Ab, bound, RUs: 1080 RU
[7]
  Ab, bound, RUs: 881 RU
[8]
  Ab, bound, RUs: 1140 RU
[9]
  Ab, bound, RUs: 708 RU
[10]
  Ab, bound, RUs: 957 RU
